Data on two molecules can be found in US20090311248A1 (published 2009).

A value given as a limit tells only on which side of the number the result lay.

The target of test [1] is HCV E1 envelope glycoprotein of genotype 1a strain H77 on retroviral pseudoparticles (HCVpp) (Hepatitis C virus genotype 1a strain H77, UniProt P27958 1-3011). Briefly: cell-based or functional assay.
Test [2] has as its target HCV E1 envelope glycoprotein of genotype 1b (HCCl 66) on retroviral pseudoparticles (Hepatitis C virus genotype 1b). The experiment in a line: cell-based or functional assay.
Test [3] deals with HCV E1 envelope glycoprotein of genotype 2a (pJ6CF) on retroviral pseudoparticles (Hepatitis C virus genotype 2a, UniProt P26660 1-3033). Briefly: cell-based or functional assay.
Test [4] deals with HCV E1 envelope glycoprotein of genotype 3a (strain S52) on retroviral pseudoparticles (Hepatitis C virus genotype 3a). The experiment in a line: cell-based or functional assay.
The target of test [5] is HCV E1 envelope glycoprotein of genotype 4a (strain ED43) on retroviral pseudoparticles (Hepatitis C virus genotype 4a, UniProt O39929 1-3008). Briefly: cell-based or functional assay.
The target of test [6] is HCV E1 envelope glycoprotein of genotype 5a (strain SA13) on retroviral pseudoparticles (Hepatitis C virus genotype 5a, UniProt O91936 1-3014). Briefly: cell-based or functional assay.
For test [7], the target named is HCV E1 envelope glycoprotein of genotype 6a (strain HK-6a) on retroviral pseudoparticles (Hepatitis C virus genotype 6a). The experiment in a line: cell-based or functional assay.
For a further test, the target named is T1, IGP 2137 (Hepatitis C virus (HCV)).
T1 construct: also called RMAWDM
The experiment in a line: ELISA, […], antibody at 1.25 µg/mL. Background: ELISA stands for enzyme-linked immunosorbent assay.

A further test deals with T2, IGP 2138 (Hepatitis C virus (HCV)).
T2 construct: also called WDMMMNW
The experiment in a line: ELISA, […], antibody at 1.25 µg/mL.

The next test deals with T3, IGP 2241 (Hepatitis C virus (HCV)).
T3 construct: E1 peptide
Briefly: ELISA, […], antibody at 1.25 µg/mL.

For another test, the target named is IGP 2254 (Hepatitis C virus (HCV), N-terminal Biotin; C-terminal -CONH2). The experiment in a line: BIAcore, antibody immobilized, peptide IGP 2254 in solution. (SPR reads the build-up and loss of mass on a sensor chip optically.)

Sequence of HCV E1 envelope glycoprotein of genotype 1a strain H77 on retroviral pseudoparticles (HCVpp) (P27958 whole entry): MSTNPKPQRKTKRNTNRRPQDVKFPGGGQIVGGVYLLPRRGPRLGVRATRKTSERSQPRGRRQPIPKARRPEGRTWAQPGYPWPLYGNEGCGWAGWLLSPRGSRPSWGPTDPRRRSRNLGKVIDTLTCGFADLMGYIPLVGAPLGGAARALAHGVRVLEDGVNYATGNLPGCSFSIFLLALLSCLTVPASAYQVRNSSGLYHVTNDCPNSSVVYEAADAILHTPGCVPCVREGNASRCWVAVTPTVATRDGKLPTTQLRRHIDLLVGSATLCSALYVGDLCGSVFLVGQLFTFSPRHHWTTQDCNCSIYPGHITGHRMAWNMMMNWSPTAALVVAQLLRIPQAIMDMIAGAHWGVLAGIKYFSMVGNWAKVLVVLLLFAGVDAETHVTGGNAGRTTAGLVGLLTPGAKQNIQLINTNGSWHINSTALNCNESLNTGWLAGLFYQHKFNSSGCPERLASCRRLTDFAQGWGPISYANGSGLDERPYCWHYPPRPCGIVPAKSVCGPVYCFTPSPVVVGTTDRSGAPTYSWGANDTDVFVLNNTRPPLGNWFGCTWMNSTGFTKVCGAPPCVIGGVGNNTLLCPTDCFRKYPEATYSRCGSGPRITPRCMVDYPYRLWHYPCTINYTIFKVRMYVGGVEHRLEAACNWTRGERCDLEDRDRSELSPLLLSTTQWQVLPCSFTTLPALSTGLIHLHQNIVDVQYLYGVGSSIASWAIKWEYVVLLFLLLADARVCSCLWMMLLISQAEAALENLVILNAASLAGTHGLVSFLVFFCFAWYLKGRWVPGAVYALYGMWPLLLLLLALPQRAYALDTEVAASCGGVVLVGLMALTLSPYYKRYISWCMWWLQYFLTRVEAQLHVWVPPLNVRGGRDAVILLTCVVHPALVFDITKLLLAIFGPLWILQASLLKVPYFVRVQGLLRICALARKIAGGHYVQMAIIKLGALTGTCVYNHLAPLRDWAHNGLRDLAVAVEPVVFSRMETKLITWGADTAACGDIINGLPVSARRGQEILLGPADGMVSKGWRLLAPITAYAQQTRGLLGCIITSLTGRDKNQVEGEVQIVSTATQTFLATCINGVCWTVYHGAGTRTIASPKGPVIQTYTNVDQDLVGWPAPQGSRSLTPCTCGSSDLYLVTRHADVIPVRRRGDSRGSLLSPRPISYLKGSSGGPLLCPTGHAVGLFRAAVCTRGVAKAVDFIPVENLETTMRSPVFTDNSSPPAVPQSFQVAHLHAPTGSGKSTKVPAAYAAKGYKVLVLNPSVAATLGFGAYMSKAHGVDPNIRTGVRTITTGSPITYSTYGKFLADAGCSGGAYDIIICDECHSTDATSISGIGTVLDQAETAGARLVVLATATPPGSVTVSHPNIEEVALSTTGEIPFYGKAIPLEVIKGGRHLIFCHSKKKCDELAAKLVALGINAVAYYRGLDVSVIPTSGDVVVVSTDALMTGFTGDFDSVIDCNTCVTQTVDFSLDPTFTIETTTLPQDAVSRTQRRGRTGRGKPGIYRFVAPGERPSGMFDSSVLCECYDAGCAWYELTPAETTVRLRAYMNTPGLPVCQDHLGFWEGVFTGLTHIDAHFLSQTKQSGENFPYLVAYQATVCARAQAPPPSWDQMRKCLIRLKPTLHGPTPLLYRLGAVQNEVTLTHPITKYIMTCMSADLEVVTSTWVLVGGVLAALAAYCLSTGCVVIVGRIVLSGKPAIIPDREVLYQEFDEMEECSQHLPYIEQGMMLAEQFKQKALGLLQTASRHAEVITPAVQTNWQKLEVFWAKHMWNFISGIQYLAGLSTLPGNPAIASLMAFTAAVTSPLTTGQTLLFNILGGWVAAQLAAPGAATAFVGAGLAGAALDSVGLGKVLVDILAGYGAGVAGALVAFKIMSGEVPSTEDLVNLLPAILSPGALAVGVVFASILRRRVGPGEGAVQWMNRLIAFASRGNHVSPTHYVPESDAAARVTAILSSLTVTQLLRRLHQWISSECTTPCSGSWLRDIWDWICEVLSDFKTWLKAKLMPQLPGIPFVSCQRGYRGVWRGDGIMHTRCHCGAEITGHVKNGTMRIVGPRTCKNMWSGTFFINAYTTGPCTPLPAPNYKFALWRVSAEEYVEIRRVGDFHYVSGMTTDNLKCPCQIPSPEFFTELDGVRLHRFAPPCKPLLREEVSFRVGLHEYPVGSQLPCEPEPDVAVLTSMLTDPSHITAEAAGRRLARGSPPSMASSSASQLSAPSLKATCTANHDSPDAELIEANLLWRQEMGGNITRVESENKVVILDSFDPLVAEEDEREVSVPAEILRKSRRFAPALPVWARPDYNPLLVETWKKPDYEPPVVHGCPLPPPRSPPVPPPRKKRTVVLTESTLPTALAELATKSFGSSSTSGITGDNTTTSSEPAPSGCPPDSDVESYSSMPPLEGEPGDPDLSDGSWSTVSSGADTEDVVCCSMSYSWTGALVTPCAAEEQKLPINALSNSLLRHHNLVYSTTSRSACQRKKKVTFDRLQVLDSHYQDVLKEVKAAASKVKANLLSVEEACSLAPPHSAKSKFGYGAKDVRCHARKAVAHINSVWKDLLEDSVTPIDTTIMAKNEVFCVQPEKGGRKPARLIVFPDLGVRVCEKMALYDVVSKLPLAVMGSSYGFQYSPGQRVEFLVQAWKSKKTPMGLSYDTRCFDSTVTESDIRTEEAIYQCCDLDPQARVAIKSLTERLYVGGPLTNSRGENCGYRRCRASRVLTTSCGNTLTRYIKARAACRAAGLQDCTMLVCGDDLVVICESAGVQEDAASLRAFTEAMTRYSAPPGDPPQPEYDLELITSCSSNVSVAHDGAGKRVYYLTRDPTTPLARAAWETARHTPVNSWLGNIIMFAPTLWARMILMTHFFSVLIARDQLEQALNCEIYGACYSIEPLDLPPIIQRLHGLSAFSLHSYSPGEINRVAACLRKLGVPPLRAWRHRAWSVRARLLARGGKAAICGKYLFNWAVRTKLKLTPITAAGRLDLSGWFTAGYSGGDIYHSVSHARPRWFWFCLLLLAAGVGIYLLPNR

B1: 48G5 (antibody, V domains shown)
VH: QVQLVQSGAEVKRPGASVKVSCKASGYTFTSYAIHWVRQAPGQRLEWMGWINPGNGNAKYSQRFQGRVIISRDTSATTSYMELSSLTSEDTAVYSCARDRGFDLLTGHYLGLDPWGQGTLVTVSS
VL: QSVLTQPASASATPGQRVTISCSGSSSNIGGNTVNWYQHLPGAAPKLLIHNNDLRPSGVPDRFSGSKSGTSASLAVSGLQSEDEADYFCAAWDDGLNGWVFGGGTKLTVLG
notes: also called 48G5C4; IGH 526
As a reminder, the Kd is a measure of binding affinity in units of concentration. A low value points to tighter binding. One may read the koff as a measure of how fast the partners let go of each other. As usually defined, the kon is the second-order rate constant of association. Consider B1, for which the “lowest concentration of antibody in µg/ml exhibiting at least 50% neutralization (HCVpp)” value is less than 1 µg/mL in test [1]; 12.5 µg/mL in [2]; 50 µg/mL in test [3]; greater than 50 µg/mL in test [4]; 6.2 µg/mL in [5]; 1.6 µg/mL in test [6]. For the same molecule, the “lowest concentration of antibody in µg/ml exhibiting at least 50% neutralization (HCVpp)” value in [7] worked out at 3.1 µg/mL. In addition, the binding result with IGP 2137, with IGP 2138 and with IGP 2241 was “no binding (tested: 1.25 µg/ml)” throughout. In addition, in the test with IGP 2254, the affinity, expressed as Kd, was 0.2 nM. This molecule also yielded a koff with IGP 2254 of 0.000305 s⁻¹. The same molecule gave an on-rate (kon) in the test with IGP 2254 of 1.54e+06 M⁻¹ s⁻¹.

B2: 17H1 (antibody, V domains shown)
VH: QVQFVQSGAEVKKPGASVKVSCKASGYTFTRHAIHWVRQAPGQRLEWMGWINPGNGNAKYSQKFQGRVTITRDTPASTVYMELSSLRSEDMGVYYCARDGGYSHDYSYFYGLDVWGPGTTVIVSS
VL: QSVLTQPPSASGTPGQRVTISCSGSSSNIGGNFVDWYQQFPGTAPKLLIYTNDQRPSGVPARFSGSKSGTSASLAISGLRSEDEADYYCAAWDDIVNGWVFGGGTKLTVRG
notes: also called 17H1D9; IGH 520
For the molecule B2, the “lowest concentration of antibody in µg/ml exhibiting at least 50% neutralization (HCVpp)” value in test [1] was 3.1 µg/mL; in test [2], 6.2 µg/mL; in test [3] it was 50 µg/mL; in [4] it was less than 50 µg/mL; in test [5], less than 1 µg/mL; in test [6], less than 1 µg/mL. Further, the “lowest concentration of antibody in µg/ml exhibiting at least 50% neutralization (HCVpp)” value in [7] is 6.2 µg/mL. For the same molecule, the Kd with IGP 2254 turned out to be 0.15 nM. This molecule also showed a koff with IGP 2254 of 0.000357 s⁻¹. Moreover, the kon with IGP 2254 was 2.35e+06 M⁻¹ s⁻¹.
